Assay results taken from publication PMC8985508.
pIC50, pKd: −log10 of the molar value.

Target: trastuzumab
Test: fluorescence polarisation

Row | pKd | pIC50 | Substance
1 | 7.85 |  | Fc-III labeled with fluorescein (Fc-III-FAM) (peptide)
2 |  | 7.24 | Fc-III peptide (wild-type Fc-III)
3 |  | 7.04 | NH2-PEG20-Fc-III (peptide)
